The values that follow come from patent publication US20260234261A1 (published 2026).

Assay in all cases: FACS binding
(In general: A flow cytometer gives signals particle by particle.)

For assay [1], the target named is T1, human CTLA4 and human CCR8 co-expressed on CHOS-hCTLA4/hCCR8 double-positive cells (human, UniProt P16410 36-223; P51685 1-355).
The target of assay [2] is T1, human CTLA4 and human CCR8 co-expressed …. This is another data set of the same source.
The target in assay [3] is T2, human CCR8 (overexpressed on CHOS-hCCR8 cells) (human, UniProt P51685 1-355).
Assay [4] addresses T1, human CTLA4 and human CCR8 co-expressed …. This is another data set of the same source.
Assay [5] deals with T2, human CCR8 (overexpressed on CHOS-hCCR8 …). The source holds these as a separate data set.
Assay [6] addresses T3, human CTLA4 (overexpressed on CHOS-hCTLA4 cells) (human, UniProt P16410 36-223).
The target in assay [7] is T3, human CTLA4 (overexpressed on …). The source holds these as a separate data set.
The target in assay [8] is T2, human CCR8 (overexpressed on CHOS-hCCR8 …). The source holds these as a separate data set.
The target in assay [9] is T1, human CTLA4 and human CCR8 co-expressed …. The source holds these as a separate data set.
The target of assay [10] is T3, human CTLA4 (overexpressed on …). The source holds these as a separate data set.
Assay [11] has as its target T2, human CCR8 (overexpressed on CHOS-hCCR8 …). The source holds these as a separate data set.

Like-named read-outs stand apart in the source and are kept apart here.

T2 sequence (P51685 whole entry): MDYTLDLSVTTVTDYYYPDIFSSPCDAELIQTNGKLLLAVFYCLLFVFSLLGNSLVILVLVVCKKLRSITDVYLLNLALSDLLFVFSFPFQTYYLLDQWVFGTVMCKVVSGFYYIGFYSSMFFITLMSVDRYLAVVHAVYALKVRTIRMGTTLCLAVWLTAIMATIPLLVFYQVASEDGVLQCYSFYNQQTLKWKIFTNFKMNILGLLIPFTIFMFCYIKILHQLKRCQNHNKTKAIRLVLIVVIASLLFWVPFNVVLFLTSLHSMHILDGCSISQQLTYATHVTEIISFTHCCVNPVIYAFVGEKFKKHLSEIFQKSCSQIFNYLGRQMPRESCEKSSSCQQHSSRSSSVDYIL
T3 sequence (P16410 36-223): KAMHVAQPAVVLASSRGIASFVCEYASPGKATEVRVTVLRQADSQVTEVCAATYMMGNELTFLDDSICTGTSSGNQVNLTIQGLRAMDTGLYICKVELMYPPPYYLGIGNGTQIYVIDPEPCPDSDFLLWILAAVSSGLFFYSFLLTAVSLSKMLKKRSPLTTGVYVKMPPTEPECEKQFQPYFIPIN
T1 sequence (P16410 36-223, chain 1 of 2): as the sequence (P16410 36-223) above
T1 sequence (P51685 whole entry, chain 2 of 2): as the sequence (P51685 whole entry) above

B1: Anti-CCR8(ADI68741-R2-21-DA)-Afu (antibody, V domains shown)
VH: EVQLVQSGAEVKKPGASVKVSCKASGYTFTSYYMHWVRQAPGQGLEWMGIINPMTGSASHAQKFQGRVTMTRDTSTSTVYMELSSLRSEDTAVYYCVRDAAARHKYFAFWGRGTLVTVSS
VL: EIVLTQSPATLSLSPGERATLSCRASQSVSSYLAWYQQKPGQAPRLLIYDASNRATGIPARFSGSGSGTDFTLTISSLEPEDFAVYYCQQYSAWPLTFGGGTKVEIKR
In general, EC50 refers to the concentration giving half of the maximal effect. High values mean lower potency in that assay, low ones higher potency in that assay. In [1], B1 displayed a concentration for a half-maximal effect (EC50) of 22.2 nM.

B2: Anti-CCR8(ADI68741)-1 Afu (antibody, V domains shown)
VH: EVQLVQSGAEVKKPGASVKVSCKASGYTFTSYYMHWVRQAPGQGLEWMGIINPGTGSTSHAQKFQGRVTMTRDTSTSTVYMELSSLRSEDTAVYYCARDGAFRHKYFDLWGRGTLVTVSS
VL: EIVLTQSPATLSLSPGERATLSCRASQSVSSYLAWYQQKPGQAPRLLIYDASNRATGIPARFSGSGSGTDFTLTISSLEPEDFAVYYCQQYSAWPLTFGGGTKVEIKR
Take B2: the half-maximal effective concentration (EC50) in assay [1] stood at 0.595 nM.

B3: Anti-CCR8(ADI68741)-1 (antibody, V domains shown)
VH: EVQLVQSGAEVKKPGASVKVSCKASGYTFTSYYMHWVRQAPGQGLEWMGIINPGTGSTSHAQKFQGRVTMTRDTSTSTVYMELSSLRSEDTAVYYCARDGAFRHKYFDLWGRGTLVTVSS
VL: EIVLTQSPATLSLSPGERATLSCRASQSVSSYLAWYQQKPGQAPRLLIYDASNRATGIPARFSGSGSGTDFTLTISSLEPEDFAVYYCQQYSAWPLTFGGGTKVEIKR
Take B3: the EC50 was 0.351 nM in assay [2], 0.743 nM in assay [3], 0.194 nM in assay [4] and 0.215 nM in assay [5].

B4: ONC-392 Analog (antibody, V domains shown)
VH: QVQLQESGPGLVKPSETLSLTCTVSGFSLTSYGLSWIRQPPGKGLEWIGYIWYDGNTNFHSPLKSRVTISVDTSKNQFSLKLSSVTAADTAVYYCAKTEGHYYGSNYGYYALDYWGQGTLVTVSS
VL: DIQMTQSPSSLSASVGDRVTITCRASENIYSNLAWYQQKQGKAPKLLLYAATNLQDGVPSRFSGSGSGTDYTLTISSLQPEDFATYFCQHLWGTPYTFGQGTKLEIKR
As to B4, the EC50 in assay [1] stood at 0.623 nM; in assay [6], 0.521 nM.

B5: Anti-CTLA4(ip-0508) (antibody, V domains shown)
VH: EVQLVESGGGVVQPGRSLRLSCAASGFTFSSYTMHWVRQAPGKGLEWVTFISEDGNNKYYADSVKGRFTISRDNSKNTLYLQMNSLRAEDTAIYYCARTGWLGPEDYWGQGTLVTVSS
VL: not shown
In the case of B5, in assay [4], the EC50 worked out at 361 nM.

B6: Anti-CTLA4(ip-05)-1 (antibody, V domains shown)
VH: EVQLVESGGGVVQPGRSLRLSCAASGFTFSSYTMHWVRQAPGKGLEWVTFISEDGNNKYYADSVKGRFTISRDNSKNTLYLQMNSLRAEDTAIYYCARTGWLGPFDYWGQGTLVTVSS
VL: not shown
For B6, the half-maximal effective concentration (EC50) in assay [2] came out at 11.8 nM; in [7], 3.6 nM.

B7: Anti-CTLA4(ip-05)-1 Afu (antibody, V domains shown)
VH: EVQLVESGGGVVQPGRSLRLSCAASGFTFSSYTMHWVRQAPGKGLEWVTFISEDGNNKYYADSVKGRFTISRDNSKNTLYLQMNSLRAEDTAIYYCARTGWLGPFDYWGQGTLVTVSS
VL: not shown
Regarding B7, the EC50 in assay [1] amounted to 98.2 nM; in assay [6], 3.98 nM; in [8] it was 51.7 nM.

B8: Anti-CTLA4(ip-05)×CCR8-6 (bispecific antibody)
heavy 1: not shown
light 1: not shown
heavy 2: not shown
light 2: EIVLTQSPATLSLSPGERATLSCRASQSVSSYLAWYQQKPGQAPRLLIYDASNRATGIPARFSGSGSGTDFTLTISSLEPEDFAVYYCQQYSAWPLTFGGGTKVEIKRTVAAPSVFIFPPSDEELKSGTASVQCLLNNFYPREAKVQWKVDNALQSGNSQESVTEQDSKDSTYSLSSELTLSKADYEKHKVYACEVTHQGLSSPVTKSFNRGEC
As for B8, the EC50 in assay [9] was found to be 11.3 nM; in [10] it was 28.2 nM; in [11] it was 6.55 nM.

B9: Anti-CTLA4(ip-05)×CCR8-4 (bispecific antibody)
heavy 1: not shown
light 1: not shown
heavy 2: not shown
light 2: EIVLTQSPATLSLSPGERATLSCRASQSVSSYLAWYQQKPGQAPRLLIYDASNRATGIPARFSGSGSGTDFTLTISSLEPEDFAVYYCQQYSAWPLTFGGGTKVEIKRTVAAPSVFIFPPSDEQLKSGRASVVCLLNNFYPREAKVQWKVDNALQSGNSQESVTEQDSKDSTYSLSSRLQLSKADYEKHKVYACEVTHQGLSSPVTKSFNRGEC
Regarding B9, the EC50 worked out at 20.8 nM in assay [9], 77.4 nM in [10] and 43.9 nM in [11].
